{"source": "a protein production outcome set (Wang et al. 2014)", "experiment": "label from the status in PepcDB records", "data": [{"sequence": "MFSKGVDSLDRTQDDPVHCMPGLTAGLSGRLLLLTVIFVMIAEVLIFVPSVANMRLSWLRDRLNTAAAAGAVIDGLQAELPRSVQNDTLMATGAKLIALRKDGTSRLLAVAETPPGVDEQYDLSDVSQAAAVRDAFSTLLFGGNRVIRVFDVVGDSDTIIELVLGENKLRAAMLAYARNVFLISIVLSLVTAGLIFISINRIMIRPIRRLTLGMQNFSEDPGNPERIFVPEEGTDELSVAGRHLADMQTELQKTLRQQKNLVDLGLAVSKINHDMRNILSSAQLMSDRLVDAKDPMVRSFAPKLLRTIDRAVAYTGEVLAYGQATEGAPKRKIVPLSLLVRDVRDILALDPDSGIEFHDSVPPDLTVDADSEQLFRVIHNLCRNAVQALQSDVANSAPRHLSISAQRAGSVVSIVIDDNGPGMPRKAKENLFSAFRGSARSGGTGLGLVIARELVLAHGGTIALVEKPGPGTQFRIEIADRAASIQAARTA", "values": [{"measurement": "protein production", "result": "failed"}]}, {"sequence": "MKAPRLIGAEIFRHSSYGRWHPLRVPRVSTVMDLSRAMGWLPPAQFITAPRAKPKALLAWHTADYIAALQRVEATQEATPHDTQRHDIGTVTNPVYPEIFRRPATAAGGSLLAGELLREGGIIYNPPGGTHHGMPDRANGFCYLNDPVLAMLSLRRNGVQRIAYVDIDAHHCDGVAAGFHGDPQCLMISVHEEGLWPRTGLLEDTAGGAGLNLPVPRGLNDTEMAYIRDRLILPQVEAFRPDAVVLLCGADGVEEDPLAHLCLSNNAHWAVTKALMGIAPRMLVLGGGGYNPWSVGRLWTGVWATLNGHDIPDRLPPEAQAVLRALRFEGNRRGKNPPEHWFTTLRDAPRPGPVRSDITDRVAELSRKAARLRLDH", "values": [{"measurement": "protein production", "result": "failed"}]}, {"sequence": "MVKKLFILISYGVIAALIYLYGEWLLEWIQQGGARFIFLTVIIATLLALFPIIPYPIIGGVLGAAYGPFLGSAVTWIGSSLASIIMFMFVRYGYQDWGLSLIRRSDLVTKVTAMFEKNAFMAIFITRLIPIIPSIIVNIYSALSRVSFINYSIASSLGKVPSMILFAVVGNSIATNPSQLLWIALFYSSFLLIVWIGYRAWQRVALQKQANI", "values": [{"measurement": "protein production", "result": "failed"}]}, {"sequence": "TPAVVERADADSQYEILVGGQRAGLTAYRDLGAQRVFFHTEIDEAFAGQGLASQLVQQALVDVRASGMRIVPVCPYVAKFLKRHDEFADITDPVTPEVLRW", "values": [{"measurement": "protein production", "result": "not failed"}]}, {"sequence": "SADQIRQSVRHSLKDILMKRLTDSNLKVPEEKAAKVATKIEKELFSFFRDTDAKYKNKYRSLMFNLKDPKNNILFKKVLKGEVTPDHLIRMSPEELASKELAAWRRR", "values": [{"measurement": "protein production", "result": "not failed"}]}, {"sequence": "TVEEVIEETPEKSELELANERADEFENKYLRAHAEMQNIQRRSSEERQQLQRYRSQDLAKAILPSLDNLERALAVEGLTDDVKKGLEMTRDSLIQALKEEG", "values": [{"measurement": "protein production", "result": "not failed"}]}, {"sequence": "MDRSLLMAIIMLVLGNNIVILSDSLIKLLDGFEAPFQFVLYRQISATLMLLPFMLLFKRPLLPKNIRWHATRAHIFLLGTVFMVISLTTLPLATANAIFYAAPIITVVLARMFFKERVTRLSLITAVLGMVGVLVIVNPSSTNIFALAALVVATTLALNNLLVKKLPAEHSILDTLYLTNLLGIPLASAMAWFEGASFDVSTFLISVGSSLFAMIYAGTCVFAYRAAESNKVTSAEYTGLIGAVILGIVFFTETPDARFYIGSVLIIAPLTVLTLRNSNRSA", "values": [{"measurement": "protein production", "result": "failed"}]}, {"sequence": "IDLAHPDLALHLHLNRGGAVLSLDGSGVSLHRRGYRAAMGAAPLKENLAAGLIQLTGWDGRMPLVDPFCGSGILLIEAVTMALQQAPGLGRQFGLEGWADFDRELWEREHARARQRRRSDLDLAPVVGYEQDPLIADQARDNIRAAGLDGLISIHSGSFEQQTLPPGPGLLVCNPPYGHRVGSEDDLEQLYRLLGSFVREQASGWQLWLLSGNASLTGALRLKASRRIPVSNGGIDCRWLNYGIR", "values": [{"measurement": "protein production", "result": "failed"}]}, {"sequence": "MLQPGGTPTKIVCLTQVVTADDLRDDAEYADIMEDMSQEGGKFGNLVNVVIPRPNPDHDPTPGVGKVFLEYADVDGSSKARSGMNGRKFGGNQVVAVYYPEDKYAQGDYED", "values": [{"measurement": "protein production", "result": "failed"}]}, {"sequence": "MEASMERFDNAPETALAWHRQGLGAALATVVETWGSAPRRVGAQLVIGGDGRIEGSVSGGCVEGAVIVEALEALEEGQARLLEFGVSDEDAFAVGLACGGTIRVLVEPVGQVLSEVMLAELVAARASRQALAYVVDTARGTRALVRDAYPERMRMDRSGFDEDGRTFVAVHNPPLRLIVVGAVHIAQALVPMARIAGYDPVVIDPREAFASDARFPGETILHDWPDEAVAKLGLDARTALVLLTHDPKLDDPALEAALAADVFYIGALGSTRTHAKRVARMQEAGFTEAQIGRIHGPVGLDIGAAGPAEIAVAILAQMTAVLRGRA", "values": [{"measurement": "protein production", "result": "not failed"}]}, {"sequence": "MSETDLLLKMVRQPVKLYSVATLFHEFSEVITKLEHSVQKEPTSLLSEENWHKQFLKFAQALPAHGSASWLNLDDALQAVVGNSRSAFLHQLIAKLKSRHLQVLELNKIGSEPLDLSNLPAPFYVLLPESFAARITLLVQDKALPYVRVSFEYWHA", "values": [{"measurement": "protein production", "result": "not failed"}]}, {"sequence": "MSLRWQWRIYEEPLQEPLTTAQGVWRSRSGIYLRLEDEQGQVGYGEIAPLPGWGSETLNADIALCQQLPGHLTPEIMATIPEALPAAQFGFATAWQSVGRLPYRVRPWPICALLGSGQAALEQWQQSWQRGQTTFKWKVGVMSPEEEQAILKALLAALPPGAKLRLDANGSWDRATANRWFAWLDRHGNGKIEYVEQPLPPDQWQALLSLAQTVTTAIALDESVVSAAEVQRWVDRGWPGFFVIKTALFGDPDSLSLLLRRGLEPQRLVFSSALEGAIARTAIFHLLETWQPCHALGFGVDRWRSAPLLTTLTAYERLWERLDQGHHHHHH", "values": [{"measurement": "protein production", "result": "not failed"}]}, {"sequence": "MSNSQAGPGASVRRVLAVIPARGGSKGVPAKNLAPVGGVPLVVRAVRECLAARLVTDVVVSTDDQAIAAAAREAGAEVVLRPAAIAGDTATSEAAVLHAMDAHEALHGAAVDVVLLVQCTSPFLVREDVDGVAGAVVEDGADTAVTVAPFHGFVWRDGADEPGGADGGHGVNHDKAYRPRRQDRPQDLLETGAAYAMAAPGFRKHRHRFFGRTDLVRTDPARVLEIDDPHDLARARALAPHFDTARPGALPTAADIDAVVLDFDGTQTDDRVLIDTDGREFVSVHRGDGLGIAALRRSGLTMLILSTEVNPVVAARARKLKLPVLHGIDRKDLALKQWCEEQGIAPERVLYVGNDVNDLPCFALVGWPVAVASAHDAVRGAARAVTTVPGGEGAVREIAAWLLGPSLDALGPASETTPTLTQSKLEHHHHHH", "values": [{"measurement": "protein production", "result": "not failed"}]}, {"sequence": "MRPIKLLPDGLISQIAAGEVIERPASVLKELLENAIDAGTTDISVNIAQGGLKLIRVTDNGGGISGEELPLALTRHATSKIASQEDLYRITSLGFRGEGLASIASVSNLLLISHQPGGKHAWQIRSEGIRVMQPEPSSHAAGTTVEVRDLFFNLPARRKFLKTEATEFAHCEEIIRRMALSHAGIAFTLRHNGNLRGHWQSAEAAVRIKTVLGEEFTRSAAWIDERSAGIGLQGMLALPAYSRAARDMQYFFVNGRFVRDKLITHALREAYRDVLHLDRHAAFVLYLDIDPEQVDVNVHPTKTEIRFREARAIHQFIYHGVSKALSLPRSGTELSQSSSQLMADDIVPPAEKRVPAAPMLNYPRQTGLPSEMIAQPFNFYQVLSGSESDSTATQNPFRQTGAGESNEHPALPPLGFALGQLHGVYILAQNWKGLVIVDMHAAHERIVYEQLKLQMDEQTLSAQRLLIPVTFHADSLDIATAEENQSLLQQLGFEVTVLTATTLAVRAVPAILQDADTEKLVCNVLDEIRNGDPGQLLAARRNELLATMACHGAVRANRPLTLIEMNELLRKMEVTERSDQCNHGRPTWFEISLAELDKMFMRGK", "values": [{"measurement": "protein production", "result": "failed"}]}, {"sequence": "MSITQRKNGTYEVSISWYDSLGKRRTKSKRGFKTKPEAVLGEAKLRLEYEEVSVREKVDQQDTFAEYFKNWYIFYKKPKVSKVTLNRYQYTYNVINEYFGNKLLKDITRANYQKFIVKYGQNHSPNTMKMINNCIKACVKNAVYDEEIKKDFTYNIELISNRDNVVQVEYLNVAEIKALLNSTISKLNPRYTSNYMIVTAILTGARLSEIAGLTWNDINFNFNTININKSYDYFAKSFKPTKNKSSNRIIKINNTLCDVLKELRTNNTDLVFKNKRGLIPTSNAVNKALRARLEELNINRRNFHFHSLRHSHVAFLLSQGIDIYPIAQRLGHSDITTTTRTYAYLIEEYKDKNDAIIIAGLDKLSAEKAPTKVPAKSDI", "values": [{"measurement": "protein production", "result": "failed"}]}, {"sequence": "MSQPPLLSGPGGRLLGAALLIGLLAGCGSVSTGNAGSGTVGTSTTSRADVMTFQPSSLPVSYVGETYNVQVGVTGGVGPYGYRLTAGTLPPGLKFAGGALSGTPTKAGSYSFAIQATDANLSTRVQEYTMNVDALPPLALKPTLPPGEIRGETRIPVTIQAPRAVRAARLSWDLGKDVQVTRVQPADAGSVVFWQQRGSVLTVDLGFRTVPRPDARIALITVKPAKAVTLKADALGYEARDGSGKMLVDKKRPGSEPVKPAEQPGDPKVDPKAADQKATDQKATDPKTVDPKTVTPADTVEGGPLPSPALPTPSLPPTLPPVTTPPANTPPVPTPTPPANQPAPAPAPQPAPAPQPTPPSGTGGALEHHHHHH", "values": [{"measurement": "protein production", "result": "not failed"}]}, {"sequence": "MHVFGLPAIGALAGTQAYWVSLVDVYAAQARIAATGMYPSGRVKRAFPGCCRGYWGDAGGSVRAGWISAAWPYGRFDRSGRPVGGAQPQVIWCEVGCGMGEHELMIFGNKDLPQRTPERPLVTFAVFAYNQESFIRDAIEGAFAQTYEPLEIILSDDCSDDETFLIMQQMAAAYRGPHKVVVRKNHENLGVLGHVLTVAKMAAGKYMVVAAGDDISFPDRTERQVSFLERESDRVVVVSSHDVIFDENCDLPNQKQDSNLRLRKQWYKNNNSWFHGGTACYRLGVLRELPLPTSRLLYEDMALINIFKAMGYSSGFMEIPTIRRRFHQLNLGMQRPERNPWDEERRILRRIEHAADVMDYAADVIEGEGGKAAKLRVQAAIMRKYAKWPDLNFVDRFLLFFESLKAGYMRKASAKVLLGKDVVLDIRSLWC", "values": [{"measurement": "protein production", "result": "failed"}]}, {"sequence": "MITILIFINIVKVVLFLFFLMTGTKIISGKMADEFKRFGLPSFFNFLTGAFEIVGAIGMLIGIWISTVALWAGLLLGGTMLAAALTLIVLARDPFKKAIPALVLFVLSLGISLYHIF", "values": [{"measurement": "protein production", "result": "failed"}]}, {"sequence": "MEAKKYQAFWRGAIILTIASFVTKVLSAFYRIPYQNIAGDVGFYIYQQIYPFYGFCLILATYGFPVIISKMVAERLERGKQKEAEEIICVSFWFLLGIGFIGFFTLFFGAETIAVAMGDIHLDKLLRVISFSFLLMPFLSVARGYFQGFNNMMPTAVSQVIEQTIRVSIIVFLSLFLIAHGFDLYTVGAGAMLGSIAGGLIGIIVLILYMRQDFRSIFFKSAARIKGKRKIVKILFWQGLAICVSNLVLIFIQMADSVSFYSLLIGAGEQAENAKVLKGVYDRSIPLMQLGTVVTTSFSLSLIPIITAAKERGDLSFIQEKVKLAMKITFVIGLAAAIGLTCIIQPTNIMLFENSDGSDVLSILSLSILFSSLSITTASILQGLGQTFKPALFVVFAGCLKLALNYIFMPYFGVKGAAFATLCALIIISGLNSLLLTRAVSGSLINKRNMLGIVISGICMGFVLMMFTRVLQMSGLVINTEHRGSATLEALLGVAIGGLTYMFFILKLRVFTKKELGTVMKQEKKEGSLKKSG", "values": [{"measurement": "protein production", "result": "failed"}]}, {"sequence": "MSPLASRALSFLGALSLLTFAATPVLAESTPTAAPPQFAVESPKAASSLLLSVAHAGKRLVAVGDRGHILLSDDDGKTWTQAKVPTRQLLTSVFFVNERKGWAVGHDAQILVSDDAGSTWARQFEDLGREAPLLDIWFADEQHGLAVGAYGALLETRDGGQHWEDVSERLDNEDQFHLNAIAAVKDNGLLVVGEAGSLFRSKDWGATWEKLEGPYEGSLFGAIGTADAGGVLVYGLRGHLFRSADFGDSWEEIPLKAASGDLEFGLSDGALLADGRIVVVGHGGSVLESTDGGRSFSVFNRPDRLSLAGVSATGDGHLILVGQGGVHLAAANGAALEQQQLEHHHHHH", "values": [{"measurement": "protein production", "result": "failed"}]}]}
